For this assay, the target named is T1, GST-tagged Drosophila Su(H) (Drosophila melanogaster, UniProt P28159 1-594).
T1 construct: Suppressor of Hairless [Su(H)], Drosophila melanogaster; construct GST-Su(H) pGEX-KG of Bailey and Posakony, 1995; also called GST-Su(H); Suppressor of Hairless; source: E. coli, isolated, on Sepharose beads
The assay can be described thus: pull-down; in vitro; Sepharose beads bearing GST-Su(H) or only GST, His-tagged Hairless or S-CAP segments in solution; Ptep S-CAP also at 10X input. Conditions: both partners purified.

T1 sequence (P28159 whole entry): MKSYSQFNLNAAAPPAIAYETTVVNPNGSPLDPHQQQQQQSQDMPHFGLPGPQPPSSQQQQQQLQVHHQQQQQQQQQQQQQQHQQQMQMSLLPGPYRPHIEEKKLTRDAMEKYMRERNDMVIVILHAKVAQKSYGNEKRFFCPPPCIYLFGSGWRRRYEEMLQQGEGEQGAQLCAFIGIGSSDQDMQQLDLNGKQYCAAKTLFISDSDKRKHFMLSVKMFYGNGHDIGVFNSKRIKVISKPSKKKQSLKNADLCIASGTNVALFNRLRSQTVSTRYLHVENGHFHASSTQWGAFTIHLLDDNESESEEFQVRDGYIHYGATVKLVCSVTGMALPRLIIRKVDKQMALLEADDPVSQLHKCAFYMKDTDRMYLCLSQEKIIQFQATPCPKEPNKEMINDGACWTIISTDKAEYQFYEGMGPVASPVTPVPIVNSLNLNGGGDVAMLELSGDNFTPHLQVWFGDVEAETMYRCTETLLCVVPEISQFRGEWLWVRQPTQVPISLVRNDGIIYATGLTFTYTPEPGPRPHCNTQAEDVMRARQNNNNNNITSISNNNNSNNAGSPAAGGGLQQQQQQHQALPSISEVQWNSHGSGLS

B1: His-tagged Parasteatoda tepidariorum S-CAP residues 233-432, wild type (domain or fragment)
chain: TVNTEDPPKDSINFLDHSRVTDPCSAASETSLPQDVPATSTVGSLKFFLGGRLVLKLNAQQDGGSGNKCQWVQSNDLPKHSNHNKKDKHKKKFAPYSYSSSGTQKPLKKGDDTSAVPDCDPSGIKKPRLKEYETSENSALGLLLCSSSWTPPVADGQESIDVDDTSSKTSEGYISPILSNNSRTSKIDTIKHDFASNPNT
notes: 200 residues, fits 233-432; Su(H)-Co-repressor Adaptor Protein (S-CAP), house spider Parasteatoda tepidariorum, residues 233-432 with the SBD-like motif; same vector and leader as m9; also called HIS-PtepSCAP233-432 WT; Ptep s-CAP233-432 WT; source: E. coli (codon-optimized for expression in E. coli, pRSET-C), isolated
In the case of B1, the binding result is recorded as “binds”.

B2: His-tagged Drosophila melanogaster Hairless residues 192-389, wild type (domain or fragment)
chain: AVVAAAAGTAKIGKGSNSGGSFDMGRTPISTHGNNSWGGYGGRLQFFKDGKFILELARSKDGDKSGWVSVTRKTFRPPSAATSATVTPTSAVTTAYPKNENSTSLSFSDDNSSIQSSPWQRDQPWKQSRPRRGISKELSLFFHRPRNSTLGRAALRTAARKRRRPHEPLTTSEDQQPIFATAIKAENGDDTLKAEAAE
notes: 198 residues, fits 192-389 and L235, F237, L245, L247, W258; the printed DNA starts with linker codons R-W-I-R before the insert; also called HIS-H192-389 WT; Dmel Hairless192-389 WT; source: E. coli (codon-optimized for expression in E. coli, pRSET-C), isolated
With B2, the binding result was “binds”.

Source of the values: PMC6777938, “Evolutionary emergence of Hairless as a novel component of the Notch signaling pathway” (eLife, 2019).
